Patent US20220412989A1, “COMPOSITIONS AND METHODS FOR DETECTING CELLS UNDERGOING FERROPTOSIS USING AN ANTIBODY” (THE TRUSTEES OF COLUMBIA UNIVERSITY IN THE CITY OF NEW YORK, priority 2020, published 2022)
Entries after “also recorded” stand apart in the source; their conditions may differ.

How the values were obtained:
[1] = system: B cell lymphoma (SU-DHL-6) mouse xenograft tumor tissue; experiment: Staining of B cell lymphoma mouse xenograft tumor tissue sections; design: species or system human; details: 40 mg/kg IKE once daily IP 14 days
Procedure: Tumor tissues were fixed in 4% paraformaldehyde (PFA) for 24 h at 4° C. followed by washing with PBS three times. The tissues were perfused in 30% sucrose for 24 h at 4° C. for cryo-protection. The samples were embedded in OCT cryostat sectioning medium, and then moved directly into a cryostat. After equilibration of temperature, frozen tumor tissues were cut into 5 μm thick sections. Tissue sections were mounted on to poly-L-lysine coated slides by placing the cold sections onto warm slides. Slides were stored at −80° C. until staining. For staining, slides were warmed to room temperature followed by washing with PBS twice. A hydrophobic barrier pen was used to draw a circle on each slide. The slides were permeabilized with PBS with 0.4% Triton X-100 (PBT) twice before non-specific-binding blocking by incubating the sections with 10% goat serum (ThermoFisher 50197Z) for 30 min at room temperature. […] All images were captured on a Zeiss LSM 800 confocal microscope at Plan-Apochromat 63x/1.40 Oil DIC objective with constant laser intensity for all analyzed samples. The intensity above threshold of the fluorescent signal of the bound antibodies was analyzed using NIH ImageJ software (ImageJ, RRID:SCR_003070). Data were expressed as fold change comparing with the vehicle. […]

[2] = biological target: T1, transferrin receptor protein 1 (Homo sapiens, UniProt P02786); experiment: siRNA knockdown of TfR1 followed by immunofluorescence; assay type: cell-based; details: HT-1080 cells, siTfR1 vs siNT
T1 construct: First, we incubated 3F3-FMA with a cell lysate overnight; endogenous in cells; host or cells: HT-1080 (ATCC CRL-7951)
T1 sequence (P02786 whole entry): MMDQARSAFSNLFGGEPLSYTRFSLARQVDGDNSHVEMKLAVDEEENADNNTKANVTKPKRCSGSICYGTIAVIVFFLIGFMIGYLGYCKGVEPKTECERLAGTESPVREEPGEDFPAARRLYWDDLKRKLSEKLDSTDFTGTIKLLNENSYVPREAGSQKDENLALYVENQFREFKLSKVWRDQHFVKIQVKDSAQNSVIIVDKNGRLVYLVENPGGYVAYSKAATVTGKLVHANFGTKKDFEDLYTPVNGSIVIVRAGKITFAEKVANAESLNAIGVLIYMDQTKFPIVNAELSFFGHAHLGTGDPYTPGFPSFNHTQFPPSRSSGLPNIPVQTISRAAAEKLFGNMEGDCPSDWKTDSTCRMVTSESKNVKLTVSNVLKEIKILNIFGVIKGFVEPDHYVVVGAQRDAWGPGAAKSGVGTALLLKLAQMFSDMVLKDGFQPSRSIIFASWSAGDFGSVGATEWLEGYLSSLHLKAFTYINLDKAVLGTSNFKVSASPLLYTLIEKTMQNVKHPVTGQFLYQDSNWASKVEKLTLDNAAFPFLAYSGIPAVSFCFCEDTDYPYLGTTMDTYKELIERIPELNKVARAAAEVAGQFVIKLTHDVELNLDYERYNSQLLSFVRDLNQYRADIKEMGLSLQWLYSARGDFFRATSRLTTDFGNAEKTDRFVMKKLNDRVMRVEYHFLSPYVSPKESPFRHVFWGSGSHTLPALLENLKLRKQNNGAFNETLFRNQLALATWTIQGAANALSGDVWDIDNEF
Procedure: 10 μM of siRNAs were combined with 250 μl of Opti-MEM serum-free media (Life Technologies 31985-070) in one tube. 6 μl of Lipofectamine RNAiMAX (Thermo Fisher Scientific 13778150) was combined with 250 μl of Opti-Mem media in another tube. They were equilibrated at r.t. for 5 min. Then two tubes were combined, transferred into 6-well plate and incubated at 37° C. for 20 min. 0.25 million HT-1080 cells were then added to 6-well plate and incubated for 48 h. Cells were reseeded in regular media for additional 24 h. Regular IF procedure was then conducted.

[3] = biological target: T2, TfR1 in mouse liver tissue (Mus musculus, UniProt Q62351); experiment: Staining of normal mouse liver frozen tissue; details: frozen tissue samples
T2 construct: from tissue; host or cells: normal mouse liver, frozen sections
T2 sequence (Q62351 whole entry): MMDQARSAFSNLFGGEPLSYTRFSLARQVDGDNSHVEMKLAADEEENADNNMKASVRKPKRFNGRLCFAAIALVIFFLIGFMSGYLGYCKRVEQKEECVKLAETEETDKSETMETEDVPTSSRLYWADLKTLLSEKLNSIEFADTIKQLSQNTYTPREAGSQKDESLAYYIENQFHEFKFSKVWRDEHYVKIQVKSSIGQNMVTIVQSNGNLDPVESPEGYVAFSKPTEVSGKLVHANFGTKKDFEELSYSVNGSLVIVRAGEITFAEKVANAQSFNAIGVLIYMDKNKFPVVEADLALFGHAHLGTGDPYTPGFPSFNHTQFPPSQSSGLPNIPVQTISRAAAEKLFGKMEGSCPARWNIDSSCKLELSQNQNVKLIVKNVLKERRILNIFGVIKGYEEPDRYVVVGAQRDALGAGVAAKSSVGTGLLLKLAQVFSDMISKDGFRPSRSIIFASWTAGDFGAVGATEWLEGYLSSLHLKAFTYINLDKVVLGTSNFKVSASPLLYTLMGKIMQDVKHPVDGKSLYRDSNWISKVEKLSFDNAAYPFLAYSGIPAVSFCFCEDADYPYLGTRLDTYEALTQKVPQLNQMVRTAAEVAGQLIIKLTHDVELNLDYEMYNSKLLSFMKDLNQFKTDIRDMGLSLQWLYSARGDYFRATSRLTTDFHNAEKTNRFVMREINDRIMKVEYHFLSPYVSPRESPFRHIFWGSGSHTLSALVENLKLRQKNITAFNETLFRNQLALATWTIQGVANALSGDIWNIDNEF
Procedure: FIGS. 12A-12B show 3F3 FMA staining in human Huntington's disease brains and mouse tissues. In FIG. 12A, human HD and control brain tissues were fixed in 4% PFA for 24 h, perfused in 30% sucrose for 24 h, and stained with DAPI (nuclei, blue) and 3F3 FMA (red). The expression level of TfR1 is low. There was no difference between HD and control groups. In FIG. 12B, mouse liver tissues and mouse GBM tissues were fixed and stained with DAPI (nuclei, blue) and 3F3 FMA (red). 3F3 FMA was able to recognize mouse TfR1.

B1: 3F3-FMA: murine monoclonal IgG1 raised against ferroptotic membrane fractions; antigen is human transferrin receptor protein 1 (TfR1) (antibody, V domains shown)
VH: EVLLQQSGTELVRPGALVKLSCKASGFNIQDLYIHWVKQRPEQGLEWIGWIDPETDNTIYDPKFQGKASITADTSSNTAYLQLSSLTSEDTAMYYCSTGLLQWYFDVWGAGTAVTVSS
VL: DIVMTQSPSSLAMSIGQKVTMRCKSSQSLLNSYNQKNCLAWYQQKPGQSPKLLLYFVSTRESGVPDRFIGSGSGTDFTLTISSVQAEDLADYFCQQHYSTPLTFGAGTKLELK
Q: For B1, which “staining intensity, IKE-treated vs vehicle samples” value [1] is on record?
A: did not detect its antigen; also recorded: no difference

Q: And the “staining in siTfR1-transfected cells” value [2]?
A: wasn't any detectable staining

Q: What about the “staining signal in normal mouse liver” value [3] of the same molecule?
A: robust signal
